Target: hnRNP K full-length (463 aa) (UniProt P61978 P61978:1-463)
Assay: competition; 2R competes hnRNP K binding to TAK1 fragments 3, 5.1 and Akt2 fragments 1, 2
Conditions: tags: His
Method: To analyze whether recombinant hnRNP K directly interacts with the Akt2 mRNA 3′UTR, UV-crosslinking experiments were performed with the [³²P]-labeled Akt2 mRNA 3′UTR subdivided in two fragments (1 and 2) (FIG. 19, lanes 1-5 and 6-10). Recombinant hnRNP K was bound strongly to both fragments (FIG. 19, lanes 1 and 6) and to the DICE, but not to the TAK1 mRNA 3′UTR fragment 4 that served as negative control (FIG. 19, lanes 11 and 12). Furthermore, it was investigated whether the short RNA consisting of 2 repeats of the DICE (2R) can be used to compete the binding of hnRNP K to the Akt2 mRNA 3′UTR fragments 1 and 2.

B1: 2R (two DICE repeats, 38 nt) (ssRNA)
RNA: CCCCACCCUCUUCCCCAAGCCCCACCCUCUUCCCCAAG
B1: binds.

From patent publication US20150152171, “Modulation of TLR4-Signaling Pathway” (Rheinisch-Westfalische Technische, published 2015)
